By Kd is commonly meant the free concentration of one partner at which half of the binding sites on the other are occupied at equilibrium, for simple one-to-one binding. The low end stands for a tighter complex, the high end for a looser complex. The term koff denotes a measure of how fast the partners let go of each other. As usually defined, the kon is a measure of how fast the partners come together. A low value points to slower complex formation.

This note sets out measurements from patent US20240294593A1.

Assay [1] deals with human PD-1-His (human) (UniProt Q15116). Kind of assay: Octet.
Chain of human PD-1-His (human) (Q15116 25-167 limits assumed): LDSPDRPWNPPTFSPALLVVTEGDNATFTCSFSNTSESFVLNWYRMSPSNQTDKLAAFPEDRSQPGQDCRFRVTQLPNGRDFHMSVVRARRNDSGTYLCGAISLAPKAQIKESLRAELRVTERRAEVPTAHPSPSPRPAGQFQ
Assay [2] shares this target. Kind of assay: Octet; in the context of PD-1-targeted IL-15/Rα-Fc fusion; reference mAb C H1L1.
Assay [3] has the same target. Kind of assay: Octet tandem epitope binning: PD-1-His on HIS1K biosensor, first dip PDL1-Fc (row), second dip 1C11-based mAb; normalized to HBS-EP first dip. On the technique in general: BLI is a label-free optical method that tracks binding on a fibre tip over time.
For assay [4] the target is unchanged. Kind of assay: Octet tandem epitope binning: PD-1-His on HIS1K biosensor, first dip chmAb A (row), second dip 1C11-based mAb; normalized to HBS-EP first dip.
For assay [5] the target is unchanged. Kind of assay: Octet tandem epitope binning: PD-1-His on HIS1K biosensor, first dip chmAb B (row), second dip 1C11-based mAb; normalized to HBS-EP first dip.
Assay [6] shares this target. Kind of assay: Octet tandem epitope binning: PD-1-His on HIS1K biosensor, first dip XENP16432 (row), second dip 1C11-based mAb; normalized to HBS-EP first dip.
For assay [7] the target is unchanged. Kind of assay: Octet tandem epitope binning: PD-1-His on HIS1K biosensor, first dip XENP21461 (row), second dip 1C11-based mAb; normalized to HBS-EP first dip.
Assay [8] has the same target. Kind of assay: Octet tandem epitope binning: PD-1-His on HIS1K biosensor, first dip 1C11-based mAb (row), second dip 1C11-based mAb; normalized to HBS-EP first dip.
The target is the same in assay [9]. Kind of assay: Octet tandem epitope binning: PD-1-His on HIS1K biosensor, first dip HBS-EP buffer (row; the reference of the normalization), second dip 1C11-based mAb.

B1: mAb C H1.19_L1.1 (in the context of PD-1-targeted IL-15/Rα-Fc fusion) (Fc fusion, part only; not given: IL-15/Rα-Fc chain, constant regions, not shown: another chain or arm of the molecule; a dimerising Fc or GST; small tags and cut ends)
VH: EVQLVESGGGLVQPGGSLRLSCAASGFTFSSLGMHWVRQAPGKGLEWVSYISSGSSIIYYADSVKGRFTISRDNAKNSLYLQMNSLRAEDTAVYYCARGGRLVWSPDYWGQGTLVTVSS
VL: DIVMTQSPDSLAVSLGERATINCKSSQSLLHSGNQKNYLTWYQQKPGQPPKLLIYWASTRESGVPDRFTGSGSGTDFTLTISSLQAEDVAVYYCQNDYSYPFTFGSGTKLEIK
Regarding B1, in the assay with human PD-1-His (human) [1], the Kd was 2.29 nM, the off-rate constant (koff) amounted to 0.00017 s⁻¹ and the kon is 74400 M⁻¹ s⁻¹.

B2: mAb C H1.132_L1.140 (in the context of PD-1-targeted IL-15/Rα-Fc fusion) (Fc fusion, part only; not given: IL-15/Rα-Fc chain, constant regions, not shown: another chain or arm of the molecule; a dimerising Fc or GST)
VH: EVQLVESGGGLVQPGGSLRLSCAASGFTFSSFGMHWVRQAPGKGLEWVSYISSGSSIIYYADSVKGRFTISRDNAKNSLYLQMNSLRAEDTAVYYCARGGWLVWSPDYWGQGTLVTVSS
VL: DIVMTQSPDSLAVSLGERATINCKSSQSLLHSGNQYNYLTWYQQKPGQPPKLLIYWASTRESGVPDRFTGSGSGTDFTLTISSLQAEDVAVYYCQNDYTYPFTFGSGTKLEIK
In the assay with human PD-1-His (human) [1], B2 displayed a Kd of 0.543 nM, a koff of 7.88e-05 s⁻¹ and a kon of 145000 M⁻¹ s⁻¹. For the same molecule, the fold improvement in KD over wild-type with human PD-1-His (human) [2] turned out to be 100 fold.

B3: mAb C H1_L1.140 (in the context of PD-1-targeted IL-15/Rα-Fc fusion) (Fc fusion, part only; not given: IL-15/Rα-Fc chain, constant regions, not shown: another chain or arm of the molecule; a dimerising Fc or GST; small tags and cut ends)
VH: EVQLVESGGGLVQPGGSLRLSCAASGFTFSSFGMHWVRQAPGKGLEWVSYISSGSSIIYYADSVKGRFTISRDNAKNSLYLQMNSLRAEDTAVYYCARGGRLVWSPDYWGQGTLVTVSS
VL: DIVMTQSPDSLAVSLGERATINCKSSQSLLHSGNQYNYLTWYQQKPGQPPKLLIYWASTRESGVPDRFTGSGSGTDFTLTISSLQAEDVAVYYCQNDYTYPFTFGSGTKLEIK
Consider B3, for which, in the assay with human PD-1-His (human) [1], the Kd is 1.62 nM, the koff was determined as 0.000122 s⁻¹ and the kon was 74800 M⁻¹ s⁻¹. Besides, the fold improvement in KD over wild-type with human PD-1-His (human) [2] stood at 36 fold.

B4: mAb C H1.175_L1.140 (in the context of PD-1-targeted IL-15/Rα-Fc fusion) (Fc fusion, part only; not given: IL-15/Rα-Fc chain, constant regions, not shown: another chain or arm of the molecule; a dimerising Fc or GST)
VH: EVQLVESGGGLVQPGGSLRLSCAASGFTFSSLGMHWVRQAPGKGLEWVSYISGGSSIIYYADSVKGRFTISRDNAKNSLYLQMNSLRAEDTAVYYCARGGWLVWSPDYWGQGTLVTVSS
VL: DIVMTQSPDSLAVSLGERATINCKSSQSLLHSGNQYNYLTWYQQKPGQPPKLLIYWASTRESGVPDRFTGSGSGTDFTLTISSLQAEDVAVYYCQNDYTYPFTFGSGTKLEIK
Take B4: in the assay with human PD-1-His (human) [1], the Kd worked out at 0.624 nM, the koff is 7.88e-05 s⁻¹ and the kon was determined as 126000 M⁻¹ s⁻¹. Further, the fold improvement in KD over wild-type with human PD-1-His (human) [2] turned out to be 100 fold.

B5: 1C11-based mAb (antibody, from another filing, V domains shown)
VH: QIQLVQSGPELKKPGETVKISCRASGYTFTHYGMNWVKQAPGKGLKWMGWINTYTGEPTYADDFKGRFAFSLETSASTAYLQINNLKNEDTATYFCARDYYGSSPYWGQGTTLTVSS
VL: DVLMTQTPLSLPVSLGDQASISCRSSQSIVHSNGNTYLEWYLQKPGQSPKLLIYKVSNRFSGVPDRFSGSGSGTDFTLKISRVEAEDLGVYYCFQGSHVPNTFGGGTKLEIKR
Regarding B5, the normalized BLI-response turned out to be 0.621 with human PD-1-His (human) [3]; 0.966 with human PD-1-His (human) [4]; 0.253 with human PD-1-His (human) [5]; 0.29 with human PD-1-His (human) [6]; 0.405 in the assay with human PD-1-His (human) [7]; 0.0987 with human PD-1-His (human) [8]. In the assay with human PD-1-His (human) [9], the normalized BLI-response was determined as 1.
